The results in this text go back to the RNAGym collection of RNA variant scans (doi:10.1073/pnas.2313332121).

The chains are these.
B1: TPR t1 (parent)
chain: GACCAAUCUGCCCUCAGAGCUCGAGAACAUCUUCGGAUGCAGAGGAGGCAGGCUUCGGUGGCGCGAUAGCGCCAACGUCCUCAACCUCCAAUGCAUCCCACCACAUGAUGAUGCCUGAAGAGCCUUGGUUUUUUG

In the data set the parent is B1. Briefly: polymerase ribozyme fitness, log enrichment relative to wild type (log ratio); higher = more active; in vitro selection for triplet polymerase activity. In short, it runs like this: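 Genotype fitness is the logarithm of its enrichment divided by wild-type enrichment, using inverse-variance-weighted averages of replicates. That logarithm is base 2. Enrichment was measured by Illumina sequencing of input and output libraries from one triplicate in vitro selection round, with frozen incubation at −7 °C, on PCR-built, transcribed mutant libraries of each subunit of a heterodimeric triplet polymerase ribozyme, retaining genotypes with ≥10 input reads and ≥1 read per output.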
Consider GACCAAUCUGCACUCAGAGCUCGAGAACAUCUUCGGAUGCAGAGGAGGCAGGCUUCGGUGGCGCGAUAGCGCCAACGUCCUCAACCUCCAAGGCAUCCCACCACAUGAUGAUGCCUGAAGAGCCUUGAUUUUUUG [C12A U92G G128A], for which the “polymerase ribozyme fitness (log ratio)” value is -5.4. For GACCAAUCUGCGCUCCGAGCUCGAGAACAUCUUCGGAUGCAGAGGAGGCAGGCUUCGGUGGCGUGAUAGCGCCAACGUCCUCAACCUCCAAUGCAUCCCACCACAUGAUGAUGCCUGAAGAGCCUUGGUUUUUUG [C12G A16C C64U] the value was -2.46; for GACCAAUCUGCACUCAGAGCUCGAGAACAUCUUCGGAUGCAGAGGAGGCAGGCUUCGGUGGCGCGAUAGCGCCAACGCCCUCAUCCUCCAAUGCAUCCCACCACAUGAUGAUGCCUGAAGAGCCUUGGUUUUUUG [C12A U78C A84U], -1.77; for GACCAAUCUGCACUCAGAGCUCGAGAACAUCUUCGGAUGCAGAGGAGGCAGGCUUCGGUGGCGCGAUAGCGCCAACGUCCUCAACCUCCAAUGCAUCCCACCACAAGAUGAUGCCUGAAGAGCCUUGGUUUUUUG [C12A U106A], -0.467. Then GACCAAUCUGCACUCAGAGCUCGAGAACAUCUUCGGAUGCAGAGGAGGCAGGCUUCGGUGGCGCGAUAGCGCCAACGUCCUCAACCUCCAAUGCAUCCCACCACAUGAUGAUGCCAGAAGAGCCUUGGUUUUUUG [C12A U116A], with -4.12; and GACCAAUCUGCACUCAGAGCUCGAGAACAUCUUCGGAUGCAGAGGAGGCAGGCUUCGGGGGCGCGAUAGCGCCAACGUCCUCAACCUCCAAUGCAUCCCACCACAUGAUGAUGCCUGAAGAGCCUUGGUUUUUUG [C12A U59G], with -0.837; and GACCAAUCUGCACUCAGAGCUCGAGAACAUCUUCGGAUGCAGAGGAGGCAGGCUUCGGCGGCGCGAUAGCGCCAACGUCCUCAACCUCCAAUGCAUCCCACCACAUGAUGAUGCCUGAAGAGCCUUGGUUUUUUG [C12A U59C], with -0.85. For GACCAAUCUGCACUCAGAGCUCGAGAACAUCUUCGGAUGCAGAGGAGGCAGGCUGCAGUGGCGCGAUAGCGCCAACGUCCUCAACCUCCAAUGCAUCCCACCACAUGAAGAUGCCUUAAGAGCCUUGGUUUCUGG [C12A U55G G57A U109A G117U U132C U134G], the “polymerase ribozyme fitness (log ratio)” value is -6.47.

As to GACCAAUCUGCGCUCAGGGCUCGAGAACAUCUUCGGAUGCAGAGGAGGCAGGCUUCGGUGGCGCGAUAGCGCCUACGGCCUCAACCACCAAUGCAUCCCACCACAUGAUGAUGCCUGAAGAGCCUUGGUUUUUUG [C12G A18G A74U U78G U87A], the “polymerase ribozyme fitness (log ratio)” value is -4.81. Then GACCAAUCUGCACUCAGAGCUCGAGAACAUCUUCGGAUGCAGAGGAGGCAGGCUUCGGUGGCGCGAUAGCGCCAACGACCUCAACCUCCAAUGCAUCCCACCACAUGAUGAUGCCUGAUGAGCCUUGGUUUUUUG [C12A U78A A119U], with -0.914; and GACCAAUCUGCACUCAGAGCUCGAGAACAUCUUCGGAUGCAGAGGAGGCAGGCUUCGGUGGCGCGAUAGCGCCAACGUCCUCAACCUCCAAUGCAUCCCACCACAUGAAGAUGCCUGAAGAGCCUUGGUUUUUUG [C12A U109A], with -5.14.

With GACCAAUCUGCGCUCAGAGCUCGAGAACAUCUUCGGAUGCAGAGGAGGCAGGCUUCGGUGGCGCGAUAGCGCCAACGUCCUCAACCUCCAAUGCAUCCCACCACAUGAUGAUGCCUGAAGAGCCUUGGUUUUUUG [C12G], the “polymerase ribozyme fitness (log ratio)” value is 0.29. For GACCAAUCUGCGCUCUGAGCUCGAGAACAUCUUCGGAUGCAGAGGAGGCAGGCUUCGGUGGCGCGAUAGCGUCAACGUCCUCAACCUCCAAUUCAUCCCACCACAUGAUGAAGCCUGAAGAGCCUUGGUUUUUUG [C12G A16U C72U G93U U112A] the value was -3.35; for GACCAAUCUGCACUCAGAGCUCGAGAACAUCUUCGGAUGCAGAGGAGGCAGGCUUCGGUGGCGCGAUAGCGCCAACGUCCUCAACCUCCAAUGCAUCCCACCACAUGAUGAAGCCUGAAGAGCCUUGGUUUUUUG [C12A U112A], 1.18. Then GACCAAUCUGCACUCAGAGCUCGAGAACAUCUUCGGAUGCAGAGGAGGCAGGCUUCGGUGGCGCGAUAGCGCCAACGUCCUCAACCUCCAAUGCAACCCACCACAUGAUGAUGCCUGAAGAGCCUUGGUUUUUUG [C12A U96A], with -1.84; and GACCAAUCUGCGCUCAGCGCUCGAGAACAUCUUCGGAUGCAGAGGAGGCAGGCUUCGGUGGCGCGAUAGCGCCAACGUCCUCAACCUUCAAUGCAUCCCACCACAUGAUGAUGCCUGAAGAGCCUUGGUUUUUUG [C12G A18C C88U], with -2.16. For GACCAAUCUGCACUCAGAGCUCGAGAACAUCUUCGGAUGCAGAGGAGGCAGGCUUCGGUGGCGCGAUAGCGCCAACGUCCUCAACCACCAAUGCAUCCCACCACAUGAUGAUGCCUGAAGAGCCUUGGUUUUUUG [C12A U87A] the value was -0.82; for GACCAAUCUGCACUCAGAGCUCGAGAACAUCUUCGGAUGCAGAGGAGGCAGGCUUCGGUGGCGCGAUAGCGCCAACGUCCUCAACCUCCAAAGCAUGCCACCACAUGAUGAUGCCUGAAGAGGCUUGUUUUUUUG [C12A U92A C97G C123G G128U], -6.73. Turning to GACCAAUCUGCGCUCUGAGCUCGAGAACAUCUUCGGAUGCAGAGGAGGCAGGCUCCGGUGGCGCGAUAGCGCCAACGCCCUCAACCUCCAAUGCAUCCCACCACAUGGUGAUGCCUGAAGAGUCUUGGUUUUUUG [C12G A16U U55C U78C A108G C123U], the “polymerase ribozyme fitness (log ratio)” value was -3.68. Then GACCAAUCUGCGCUCAGCGCUCGAGAACAUCUUCGGAUGCAGAGGAGGCAGGCUUUGGUGGCGCGAUAGCGCCAACGUCUUCAACCUCCAAUGCAUCCCACCACAUGAUGAGGCCUGAAGAGCCUUGGUUUUUUG [C12G A18C C56U C80U U112G], with -4.94; and GACCAAUCUGCGCUCAGGGCUCGAGAACAUCUUCGGAUGCAGACGAGGCAGGCUUCGGUGGCGCGAUAGCCCCAACGUCCUCAUCCUCCAAUGCAUCCCACCACAUGAUGAUGCCUGAAGAGCCUUGGUUUUUUG [C12G A18G G44C G71C A84U], with -6.08.
